Results: the supplement of paper PMC9170038

System: K4 kissing-loop RNA reporter
Assay: apparent KD of K4 kissing-loop reporter; higher = weaker reporter binding
Settings: Eterna round: R107
Experimental: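 RNA-MaP round R107: designed RNA switches with theophylline, tryptophan, arginine or FMN aptamers are transcribed on-chip within common flanks. They are titrated with a labelled K4 kissing-loop RNA reporter in RNA-MaP buffer (100 mM Tris pH 7.5, 80 mM KCl, 4 mM MgCl2), without ligand or with the indicated ligand. Median apparent KD per design.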

[1] = input ligand: theophylline 20 uM
[2] = input ligand: tryptophan 2.4 mM
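Note: bound reporter read as fluorescence of individual clusters on recovered sequencing chips by microscopy, with normalized cluster intensities fitted with a binding model.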

Sequence	apparent KD of K4 kissing-loop reporter (input ligand: FMN 200 uM)	apparent KD of K4 kissing-loop reporter (input ligand: arginine 13.2 mM)	apparent KD of K4 kissing-loop reporter (input ligand: none)	apparent KD of K4 kissing-loop reporter [1]	apparent KD of K4 kissing-loop reporter [2]
AAAAUAAAUAGCAGUCAUGGAGUGAUGUUCCGAGGACCGGUACGGCCGCCACUCGACCAUCAUAAGAUGGAAUGGCAAGACUGCA [#SwitchBubble 23 #K4Early]	330 nM	265 nM	358 nM	418 nM	208 nM
AAAAUAAAUCAGUGAUGUUGGUAUCUGGAUACCAGCGAUAAUAGUCGCCCUUGGCAGCCAUGGACGUACAAAAUAAGUACGUCCU [MatMod 19 - Jieux - Same State - Theophylline A]	221 nM	117 nM	183 nM	170 nM	160 nM
AAAAUUGCGGUCGAAAGAACUUCUUGCAUACGAGGACCGGUACGGCCGCCACUCGAGUCAAGUGAUGUUUGAUUUUCUAUUAUUA [JR_ExcTryptoA_Sub013]	135 nM	170 nM	160 nM	205 nM	153 nM
AAACCAAUCAGAGGAUAUUCUUUAUUCGACAUAAAUUUCUAUAAAUUGCAGUGAUGUUGCAAUAUAGGAGAAGGCUGAUUGACAA [Exclusion FMN B Gf 12]	239 nM	199 nM	204 nM	229 nM	223 nM
AAACGUUGGUGCGAUACCAGCUGCUCGGAAACGAGCUUGCUGGAGUGAUGUUCCAGGAAAAGCCCUUGGCAGCGCACCGACGAAA [MAT - Same State Theophlline B - Mod of Eli - D27]	856 nM	561 nM	2040 nM	738 nM	715 nM
AAAGAUCUUCUAGAAACUAGAAGAUCAAGAGAGGAUAUCCGAAUUCGGAGAAGGCUCACUAAGUGAUGUUUGGAGGGAAUCCCAA [AK1 SS FMN A]	1250 nM	805 nM	1670 nM	1290 nM	1360 nM
AAAGAUGCGUCGGCCGCCACUGUUGCCAGUGAUGUUGGCAUGUAGAUGCAGUGAUGUUGCGUUUUCAGGACCGGGACGUAAGAUG [5th]	261 nM	253 nM	302 nM	246 nM	134 nM
AAAGUCGGCUGUGAUACCAGUCAUAUAACAACAUAUCGCAGUGAUGUUGCGAGAUAGGAUGACCCUUGGCAGCACUCAGUACGAU [Same State Theophylline B GF 6]	349 nM	360 nM	380 nM	331 nM	338 nM
AAAUAAAUCACGGCCGCCACUGCUAGAGUGAUGUUCUAUUAAUAAUUUCUAAAUUAUAUAAUACUCAGGACCGGGUGAUUUUUAA [JR_SSTryptoB_Sub020]	578 nM	215 nM	355 nM	426 nM	446 nM
AAAUAAAUGGCGGCCGCCACUGAACGCCUCCGCGUGGGUAUAUAGUGAUGUUAUAUGGCCGCCAUCAGGACCGGGCCAAAUAAAA [#08 K4 Tryptophan B Same State]	330 nM	259 nM	502 nM	377 nM	222 nM
AAAUAGCUGACGUUGAGUGGGAGCCAGGCACGAGGACCGGUACGGCCGCCACUCGACUAGGUUUUCAGUGAUGUUGAAAAUUUAA [Exclusion Tryptophan A GF 5]	239 nM	249 nM	206 nM	224 nM	194 nM
AAAUAUUGUUACCUGUUAACAUAGGGCCAACGAGGACCGGUACGGCCGCCACUCGUCUCAUAGCGAGUGAUGUUCGCACCGCCCA	133 nM	58.2 nM	76.6 nM	123 nM	126 nM
AAAUUCUUUUUUUUAUUUAACUUUUCAGAAGGAGCGUGGUAGUACACAGGUAGGUCGCUGAAUUUUAGACUAGUGAUGUUAGUUA [JR_SSArginiA_Sub008]	130 nM	156 nM	190 nM	182 nM	151 nM
AACUCUCAGGCACGCGAGUGAUGUUCGCGGCGAGGACCGGUACGGCCGCCACUCGCGCCUGAGAGAGGUUAUCAAAGAUAGCCAA [whbob_SS_tryp_A]	146 nM	51.3 nM	116 nM	118 nM	223 nM
AACUGCUAAGAGGUUAAGCACGUCAUUAUGAAGGAUAUAGAAUUCACUAGAAGGUCAUGUGCCCUGAGUGAUGUUCAGAUAGGCG [theeternabot_sameState_KL_FMN_A_25]	294 nM	229 nM	236 nM	421 nM	336 nM
AACUGUCAAGGCCAACAUUACUGAGGUGAUACCAGCAUCGAAAGAUGCCCUUGGCAGCACCAACUUGCAGUGAUGUUGCAAGUAA [BrourdMod 13 - Jieux - Exclusion - Theophylline A]	231 nM	203 nM	234 nM	307 nM	225 nM
